The values that follow come from PMC11116900, “Interaction among homeodomain transcription factors mediates ethylene biosynthesis during pear fruit ripening”.

Assay in all cases: EMSA; competed by 10x and 100x cold probe; EMSA according to a previous study (ref 35); buffer, salt, pH and temperature not given
What all share (conditions): protein: recombinant; tags: TF (trigger factor) fusion from pCold-TF; chain copies: 2; label: biotin
For orientation: A gel shift assay detects complexes by their altered migration in electrophoresis.

The target in one series is T1, PbHB.G2.1 (pear (Pyrus; species  in the …, UniProt A0A5N5HPW9 1-368).
T1 sequence: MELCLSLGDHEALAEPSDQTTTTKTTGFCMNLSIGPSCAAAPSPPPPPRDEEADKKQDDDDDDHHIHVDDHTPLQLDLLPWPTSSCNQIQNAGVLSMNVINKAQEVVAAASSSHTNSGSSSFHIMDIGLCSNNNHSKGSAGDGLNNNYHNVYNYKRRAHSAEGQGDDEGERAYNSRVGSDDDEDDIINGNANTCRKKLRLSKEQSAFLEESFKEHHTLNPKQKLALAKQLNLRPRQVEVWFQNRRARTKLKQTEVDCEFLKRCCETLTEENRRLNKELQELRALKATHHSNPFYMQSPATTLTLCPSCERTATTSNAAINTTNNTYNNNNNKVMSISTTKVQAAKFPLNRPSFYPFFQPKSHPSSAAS

A further series addresses T2, PbHB.G7.2 (pear (Pyrus; species  in the …, UniProt A0A5N5HLN1 1-287).
T2 sequence: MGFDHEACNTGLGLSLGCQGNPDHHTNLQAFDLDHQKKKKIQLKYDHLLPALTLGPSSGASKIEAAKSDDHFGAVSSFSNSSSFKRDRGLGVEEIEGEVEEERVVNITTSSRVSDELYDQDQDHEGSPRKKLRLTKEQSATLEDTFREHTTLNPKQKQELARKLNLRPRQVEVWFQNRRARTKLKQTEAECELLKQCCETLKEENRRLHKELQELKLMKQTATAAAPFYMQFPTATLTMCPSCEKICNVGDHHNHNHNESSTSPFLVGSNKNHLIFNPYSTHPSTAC

The target in a further series is T3, PbHB.G1 (pear (Pyrus; species  in the …, UniProt UPI0020301D10 1-344).
T3 sequence: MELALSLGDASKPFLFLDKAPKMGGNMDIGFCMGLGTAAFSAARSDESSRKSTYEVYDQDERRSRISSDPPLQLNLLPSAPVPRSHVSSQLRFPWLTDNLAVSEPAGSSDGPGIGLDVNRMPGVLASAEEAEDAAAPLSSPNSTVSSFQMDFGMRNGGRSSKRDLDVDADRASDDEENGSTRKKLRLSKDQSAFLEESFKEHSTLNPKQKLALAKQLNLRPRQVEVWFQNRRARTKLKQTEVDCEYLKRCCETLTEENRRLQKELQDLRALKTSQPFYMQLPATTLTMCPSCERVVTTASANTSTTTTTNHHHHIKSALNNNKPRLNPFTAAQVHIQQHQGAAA

B1: PbACS1b promoter P17 probe 2 (40 bp) (dsDNA)
DNA 1: CCTCAAGGAAATAGTAATACCCTTTAGATTTGAAGTCCTA
DNA 2: TAGGACTTCAAATCTAAAGGGTATTACTATTTCCTTGAGG
B1: in the series with PbHB.G2.1, the binding result is “binds”.

B2: PbACS1b promoter P9 probe (34 bp) (dsDNA)
DNA 1: CTTATGGGTCGGTTTTTCTACATTTGAATTTTGA
DNA 2: TCAAAATTCAAATGTAGAAAAACCGACCCATAAG
In the case of B2, the binding result with PbHB.G7.2 was “binds”.

B3: PbACS1b promoter P16 probe 1 (33 bp) (dsDNA)
DNA 1: TTATATGTTGTATCTTATTTCATCGTTGATTAC
DNA 2: GTAATCAACGATGAAATAAGATACAACATATAA
In the case of B3, the binding result with PbHB.G1 is on record as “binds”.
